Experimental findings from patent publication US20260250398A1 (ANTLERA THERAPEUTICS, published 2026) are described below.

To fix the notation:
B1: CM0299 (FZD IgG-LRP Diabody; paratopes 5016; 2539) (bispecific antibody)
heavy: not shown
light: DIQMTQSPSSLSASVGDRVTITCRASQSVSSAVAWYQQKPGKAPKLLIYSASSLYSGVPSRFSGSRSGTDFTLTISSLQPEDFATYYCQQGVYLFTFGQGTKVEIKRTVAAPSVFIFPPSDEQLKSGTASVVCLLNNFYPREAKVQWKVDNALQSGNSQESVTEQDSKDSTYSLSSTLTLSKADYEKHKVYACEVTHQGLSSPVTKSFNRGEC
B2: CM0301 (FZD IgG-LRP scFv; paratopes 5016; 2542) (bispecific antibody)
heavy: not shown
light: B1 light
B3: CM0300 (FZD IgG-LRP scFv; paratopes 5016; 2539) (bispecific antibody)
heavy: not shown
light: B1 light
B4: CT0003 (Table 5: FZD Diabody-Fc-LRP scFv; paratopes 5016; 2539, 2542) (bispecific antibody)
chain 1: MNLLLILTFVAAAVAEFEVQLVESGGGLVQPGGSLRLSCAASGFNISSYYIHWVRQAPGKGLEWVASIYSSYGYTSYADSVKGRFTISADTSKNTAYLQMNSLRAEDTAVYYCARTVRGSKKPYFSGWAMDYWGQGTLVTVSSGGGGSDIQMTQSPSSLSASVGDRVTITCRASQSVSSAVAWYQQKPGKAPKLLIYSASSLYSGVPSRFSGSRSGTDFTLTISSLQPEDFATYYCQQYSWGPFTFGQGTKVEIKLEDKTHTKVEPKSSDKTHNCPPCPAPELLGGPSVFLFPPKPKDTLMISRTPEVTCVVVDVSHEDPEVKFNWYVDGVEVHNAKTKPREEQYNSTYRVVSVLTVLHQDWLNGKEYKCKVSNKALPAPIEKTISKAKGQPREPQVYTLPPIRELMTSNQVSLSCAVKGFYPSDIAVEWESNGQPENNYKTTPPVLDSDGSFFLVSKLTVDKSRWQQGNVFSCSVMHEALHNHYTQKSLSLSPGKSGSETPGTSESATPESGGGEVQLVESGGGLVQPGGSLRLSCAASGFNIHSSSIHWVRQAPGKGLEWVAATYSSFGSITYADSVKGRFTISADTSKNTAYLQMNSLRAEDTAVYYCARYHHPFGYALDYWGQGTLVTVSSGTTAASGSSGGSSSGADIQMTQSPSSLSASVGDRVTITCRASQSVSSAVAWYQQKPGKAPKLLIYSASSLYSGVPSRFSGSRSGTDFTLTISSLQPEDFATYYCQQGVYLFTFGQGTKVEIK
chain 2: MNLLLILTFVAAAVAEFEVQLVESGGGLVQPGGSLRLSCAASGFNISYSSIHWVRQAPGKGLEWVAYISSYYGYTYYADSVKGRFTISADTSKNTAYLQMNSLRAEDTAVYYCARAHYFPWAGAMDYWGQGTLVTVSSGGGGDIQMTQSPSSLSASVGDRVTITCRASQSVSSAVAWYQQKPGKAPKLLIYSASSLYSGVPSRFSGSRSGTDFTLTISSLQPEDFATYYCQQYYWPITFGQGTKVEIKLEDKTHTKVEPKTSDKTHTCPPCPAPELLGGPSVFLFPPKPKDTLMISRTPEVTCVVVDVSHEDPEVKFNWYVDGVEVHNAKTKPREEQYNSTYRVVSVLTVLHQDWLNGKEYKCKVSNKALPAPIEKTISKAKGQPREPMVFDLPPSREEMTKNQVSLWCMVKGFYPSDIAVEWESNGQPENNYKTTPPVLDSDGSFFLYSKLTVDKSRWQQGNVFSCSVMHEALHNHYTQKSLSLSPGKSGSETPGTSESATPESGGGEVQLVESGGGLVQPGGSLRLSCAASGFNIHSSSIHWVRQAPGKGLEWVAATYSSFGSITYADSVKGRFTISADTSKNTAYLQMNSLRAEDTAVYYCARYHHPFGYALDYWGQGTLVTVSSGTTAASGSSGGSSSGADIQMTQSPSSLSASVGDRVTITCRASQSVSSAVAWYQQKPGKAPKLLIYSASSLYSGVPSRFSGSRSGTDFTLTISSLQPEDFATYYCQQGVYLFTFGQGTKVEIK
B5: Fab-Dia (paratopes 5016; 2540/2542) (bispecific antibody)
heavy: EVQLVESGGGLVQPGGSLRLSCAASGFNIHSSSIHWVRQAPGKGLEWVAATYSSFGSITYADSVKGRFTISADTSKNTAYLQMNSLRAEDTAVYYCARYHHPFGYALDYWGQGTLVTVSSASTKGPSVFPLAPSSKSTSGGTAALGCLVKDYFPEPVTVSWNSGALTSGVHTFPAVLQSSGLYSLSSVVTVPSSSLGTQTYICNVNHKPSNTKVDKKVEPKSCDKTHTGGSGGEVQLVESGGGLVQPGGSLRLSCAASGFTISYSSIHWVRQAPGKGLEWVASISPYYGYTYYADSVKGRFTISADTSKNTAYLQMNSLRAEDTAVYYCARSSYFPWFSAMDYWGQGTLVTVSSGGGGSDIQMTQSPSSLSASVGDRVTITCRASQSVSSAVAWYQQKPGKAPKLLIYSASSLYSGVPSRFSGSRSGTDFTLTISSLQPEDFATYYCQQYYWPITFGQGTKVEIK
light: DIQMTQSPSSLSASVGDRVTITCRASQSVSSAVAWYQQKPGKAPKLLIYSASSLYSGVPSRFSGSRSGTDFTLTISSLQPEDFATYYCQQGVYLFTFGQGTKVEIKRTVAAPSVFIFPPSDEQLKSGTASVVCLLNNFYPREAKVQWKVDNALQSGNSQESVTEQDSKDSTYSLSSTLTLSKADYEKHKVYACEVTHQGLSSPVTKSFNRGECGGGGSEVQLVESGGGLVQPGGSLRLSCAASGFTISSYYIHWVRQAPGKGLEWVASIYSSYGYTSYADSVKGRFTISADTSKNTAYLQMNSLRAEDTAVYYCARTVRGSKKPYFSGWAMDYWGQGTLVTVSSGGGGSDIQMTQSPSSLSASVGDRVTITCRASQSVSSAVAWYQQKPGKAPKLLIYSASSLYSGVPSRFSGSRSGTDFTLTISSLQPEDFATYYCQQYYFLITFGQGTKVEIK
B6: CH3 (Dia-CH3-Dia; paratopes 5019; 2539) (bispecific antibody)
chain: MNLLLILTFVAAAVAEFEVQLVESGGGLVQPGGSLRLSCAASGFNIGSSSIHWVRQAPGKGLEWVASIYSAFASTSYADSVKGRFTISADTSKNTAYLQMNSLRAEDTAVYYCARYHFPFGFALDYWGQGTLVTVSSGGGGSDIQMTQSPSSLSASVGDRVTITCRASQSVSSAVAWYQQKPGKAPKLLIYSASSLYSGVPSRFSGSRSGTDFTLTISSLQPEDFATYYCQQGVYLFTFGQGTKVEIKDKTHTKVEPKTSDKTHTCPPCPGQPREPQVYTLPPSREEMTKNQVSLTCLVKGFYPSDIAVEWESNGQPENNYKTTPPVLDSDGSFFLYSKLTVDKSRWQQGNVFSCSVMHEALHNHYTQKSLSLSPGKGTTAASGSSGGSSSGAGRTEVQLVESGGGLVQPGGSLRLSCAASGFNISYSSIHWVRQAPGKGLEWVAYISSYYGYTYYADSVKGRFTISADTSKNTAYLQMNSLRAEDTAVYYCARAHYFPWAGAMDYWGQGTLVTVSSGGGGSDIQMTQSPSSLSASVGDRVTITCRASQSVSSAVAWYQQKPGKAPKLLIYSASSLYSGVPSRFSGSRSGTDFTLTISSLQPEDFATYYCQQYSWGPFTFGQGTKVEIK

The first test has as its target T1, LRP6 (low-density lipoprotein receptor-related protein 6) (UniProt O75581 20-1370, limits assumed).
T1 sequence (looked up): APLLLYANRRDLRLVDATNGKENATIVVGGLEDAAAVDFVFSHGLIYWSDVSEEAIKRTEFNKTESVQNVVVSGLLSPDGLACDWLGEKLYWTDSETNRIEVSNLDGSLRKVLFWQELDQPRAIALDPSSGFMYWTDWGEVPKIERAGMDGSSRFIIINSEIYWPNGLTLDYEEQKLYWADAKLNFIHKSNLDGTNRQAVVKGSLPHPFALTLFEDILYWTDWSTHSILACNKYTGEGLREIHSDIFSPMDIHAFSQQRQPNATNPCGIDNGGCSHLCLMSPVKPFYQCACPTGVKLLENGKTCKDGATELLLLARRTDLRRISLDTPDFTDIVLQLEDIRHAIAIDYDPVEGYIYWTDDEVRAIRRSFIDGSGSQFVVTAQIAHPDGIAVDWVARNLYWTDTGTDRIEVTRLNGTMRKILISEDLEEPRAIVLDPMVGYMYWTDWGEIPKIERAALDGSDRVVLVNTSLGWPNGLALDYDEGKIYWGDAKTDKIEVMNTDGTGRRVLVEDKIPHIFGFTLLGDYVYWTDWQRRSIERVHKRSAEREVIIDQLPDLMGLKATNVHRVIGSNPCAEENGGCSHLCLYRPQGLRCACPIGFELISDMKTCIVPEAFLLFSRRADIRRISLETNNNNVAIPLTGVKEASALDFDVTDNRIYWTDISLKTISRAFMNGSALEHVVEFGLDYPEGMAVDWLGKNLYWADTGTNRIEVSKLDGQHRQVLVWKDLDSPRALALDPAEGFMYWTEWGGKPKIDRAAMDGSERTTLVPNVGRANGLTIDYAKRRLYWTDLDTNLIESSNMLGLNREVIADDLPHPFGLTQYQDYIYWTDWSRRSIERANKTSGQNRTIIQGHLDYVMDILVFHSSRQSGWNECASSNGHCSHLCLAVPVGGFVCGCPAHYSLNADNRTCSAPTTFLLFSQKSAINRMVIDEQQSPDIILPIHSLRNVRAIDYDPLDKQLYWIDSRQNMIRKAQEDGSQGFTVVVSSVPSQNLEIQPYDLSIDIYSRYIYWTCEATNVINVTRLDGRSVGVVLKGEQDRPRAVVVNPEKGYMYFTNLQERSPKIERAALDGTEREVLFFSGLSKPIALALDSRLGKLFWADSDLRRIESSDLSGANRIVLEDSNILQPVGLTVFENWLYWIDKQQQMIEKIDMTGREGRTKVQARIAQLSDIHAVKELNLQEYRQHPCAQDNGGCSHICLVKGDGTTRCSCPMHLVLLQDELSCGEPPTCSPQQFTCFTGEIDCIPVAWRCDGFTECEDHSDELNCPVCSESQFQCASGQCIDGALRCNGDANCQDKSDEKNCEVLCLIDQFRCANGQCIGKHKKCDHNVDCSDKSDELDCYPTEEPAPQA
Put plainly: cell-based or functional assay.
Consider B1, for which the “TOPFLASH % Wnt Maxima” value came to 14 % Wnt Maxima. For B2, the “TOPFLASH % Wnt Maxima” value worked out at 1 % Wnt Maxima. Still for that read-out and setting: in the case of B3 it was 5 % Wnt Maxima; in that of B4, 42 % Wnt Maxima.

For the next test, the target named is T1, LRP6 (low-density lipoprotein …). The experiment in a line: cell-based or functional assay. The source holds these as a separate data set.
For the molecule B5, the “TOPFLASH Maximal Signal (% Wnt3a maxima)” value is 42 % Wnt3a maxima. Regarding B6, the “TOPFLASH Maximal Signal (% Wnt3a maxima)” value was determined as 22 % Wnt3a maxima.
